Key:
[1] = biological target: LbXyn43B/Thr274Ala (Levilactobacillus brevis DSM 1269); assay: SEC; Sephacryl S-300 (110 mL), 0.1 mL/min, 50 mM sodium phosphate, 150 mM NaCl, pH 7.0; calibrated with molecular weight standards of 20-700 kDa; apparent molecular mass
[2] = biological target: LbXyn43B/Thr274Ala (Levilactobacillus brevis DSM 1269); assay: SEC-MALS; OMNISEC multi-detection SEC: Superdex 200 Increase 10/300 GL, light scattering (RALS 90°, LALS 7°), refractive index, viscometer, UV/VIS; 50 µL of 4.5 mg/mL injected in triplicate; 50 mM sodium phosphate, pH 7, 150 mM NaCl; 0.5 mL/min
[3] = biological target: β-D-xylosidase LbXyn43B from Levilactobacillus brevis DSM1269 (Levilactobacillus brevis DSM 1269); assay: crystal structure; X-ray, 1.9 Å, space group P 1 21 1, four chains (A-D); crystals from 27-29% PEG 1500, 60-140 mM malonate-imidazole-borate buffer, pH 4.0-4.5, 4°C
[4] = biological target: β-D-xylosidase LbXyn43B from Levilactobacillus brevis DSM1269 (Levilactobacillus brevis DSM 1269); assay: SEC; Sephacryl S-300 (110 mL), 0.1 mL/min, 50 mM sodium phosphate, 150 mM NaCl, pH 7.0; calibrated with molecular weight standards of 20-700 kDa; apparent molecular mass
[5] = biological target: β-D-xylosidase LbXyn43B from Levilactobacillus brevis DSM1269 (Levilactobacillus brevis DSM 1269); assay: SEC-MALS; OMNISEC multi-detection SEC: Superdex 200 Increase 10/300 GL, light scattering (RALS 90°, LALS 7°), refractive index, viscometer, UV/VIS; 50 µL of 4.5 mg/mL injected in triplicate; 50 mM sodium phosphate, pH 7, 150 mM NaCl; 0.5 mL/min

stoichiometry N [1]	fraction of sample in peak 1 (tetramer) [2] [%]	stoichiometry N [2]	stoichiometry N [3]	stoichiometry N [4]	fraction of sample in peak 1 (tetramer) [5] [%]	stoichiometry N [5]	Substance
3	91.3	4	–	–	–	–	LbXyn43B/Thr274Ala (enzyme)
–	–	–	4	4	84.9	4	β-D-xylosidase LbXyn43B from Levilactobacillus brevis DSM1269 (enzyme)

Source: PMC12432433
